From paper PMC7948479, “Allostery in the nitric oxide dioxygenase mechanism of flavohemoglobin” (The Journal of Biological Chemistry, 2020)
Read-outs that look alike come from different tables or passages of the source.

Assays:
E. coli flavoHb-NOD [1] = biological target: E. coli flavoHb-NOD (Escherichia coli, UniProt P24232); settings: read-out: theoretical Km(O2) (Vmax/k'O2); cited from earlier work
E. coli flavoHb-NOD [2] = settings: entry of O2 into the LT, value assumed for fitting, cited from earlier work
E. coli flavoHb [3] = biological target: E. coli flavoHb (Escherichia coli, UniProt P24232)
Protocol: (§1) FAD and heme reduction were monitored by following the changes in flavoHb absorbance at 460 and 430 nm, respectively, with stopped-flow rapid mixing of 50 μM NADH and 10 μM flavoHb in N2-purged buffer ([4]). O2, NO, and CO association rate constants were determined by photolyzing 50 μM of the respective ferrous flavoHb species with a 300-ns pulse from a 577-nm laser and by spectrophotometrically following ligand reassociation in O2-, NO-, or CO-saturated buffer unless otherwise indicated ([4], [5]). […] Binding of NO was measured by the change of absorbance at 422 nm by applying a difference extinction coefficient of 0.040 μM^−1 cm^−1. O2 and CO dissociation rate constants were determined by stopped-flow rapid mixing with either CO or NO displacement ([4], [5]). The cuvette path length was 1.0 cm. All reactions were at 20 °C in filtered 100 mM sodium phosphate buffer, pH 7.0, containing 0.3 mM EDTA. Catalase (1000 U/ml) was included in all reactions containing O2 to scavenge H2O2 produced by the NADH oxidase activity of flavoHb and to regenerate O2.

[4] = tested on: flavoHb heme (Fe^2+ / Fe^3+); settings: for Kd: from slow phase; for time for 90% activity recovery following NO binding: calculated from k(NO)
Protocol: as §1

[5] = biological target: flavoHb heme (Fe^2+ / Fe^3+) (Escherichia coli, UniProt P24232)
Protocol: as §1

E. coli flavoHb [6] = tested on: E. coli flavoHb
Protocol: as §1

[7] = Methyl viologen reductase activity; format: biochemical; settings: 37 °C; anaerobic
Protocol: (§2) NADH oxidase activity was followed spectrophotometrically at 340 nm in a 1.0-ml cuvette containing 90 mM Tris chloride buffer, pH 8.2, 100 μM NADH, 200 μM O2, 0.1 μM FAD, 100 μg/ml BSA, and 0.3 mM EDTA and incubated at 37 °C. […] TMAO reductase activity was assayed by following the absorbance decrease at 340 nm in a 1.0-ml anaerobic reaction containing 12 U Aspergillus niger glucose oxidase, 5 mM glucose, 260 U catalase, 400 mM TMAO, 100 μM NADH, 0.1 μM FAD, 100 μg/ml BSA, and 0.3 mM EDTA in 90 mM Tris chloride pH 8.2 and incubated at 37 °C. […] Methyl viologen reductase activity was assayed by following the formation of the blue cation radical at 603 nm and by applying an extinction coefficient of 13,300 M^−1 cm^−1 in a 1.0-ml anaerobic reaction buffered with 10 mM potassium phosphate, pH 7.0, and containing 12 U glucose oxidase, 5 mM glucose, 260 U catalase, 100 μM NADH, 0.1 μM FAD, 100 μg/ml BSA, 0.3 mM EDTA, and 200 mM sodium chloride and incubated at 37 °C. NO reductase activity was assayed amperometrically at 37 °C in a 1.0-ml anaerobic reaction containing 2 μM NO, 100 μM NADH, 0.1 μM FAD, 12 U glucose oxidase, 5 mM glucose, 260 U catalase, 100 μg/ml BSA, and 0.3 mM EDTA buffered with 10 mM potassium phosphate pH 7.0. CO effects were tested at a final concentration of 50 μM as diluted from a 1 mM stock in water. […]

TMAO reductase activity = format: biochemical; settings: 37 °C; 400 mM TMAO; anaerobic
Protocol: as §2

[8] = design: method as in PMID 10777548, PMID 10922365; settings: cited from earlier work
ferric cytochrome b5 = experiment: Cytochrome b5 reductase activity; format: biochemical, rat; settings: 37 °C; 10 μM ferric cytochrome b5
Text: Reagents were purchased from Sigma-Aldrich Chemical Co (St Louis, MO, USA) unless otherwise stated. DNA primers were synthesized at the University of Cincinnati Medical Center DNA facility. Praxair (Bethlehem, PA, USA) was the supplier of 99.993% O2, 99.999% CO, and 99.98% N2. Bovine liver catalase (260,000 U/ml) was obtained from Roche Applied Science. Recombinant rat cytochrome b5 (soluble form) and murine Ngb were expressed in E. coli and purified essentially as described ([10], [70]). NADH purity (≥95%) was assessed by the ratio of the 340 to 260 nm absorbance with a value of 0.437 equal to 100% reduced.

[9] = NO reductase activity (anaerobic); format: biochemical
Protocol: as §2

NADH oxidase activity = format: biochemical; settings: 37 °C; relative to heme content
Protocol: as §2

[10] = Fe2+ CO, 100 µM CO in the presence of 0.6 mM N2
[11] = Fe2+ O2, 100 µM CO in the presence of 1 mM O2

B1: WT: wild-type E. coli flavohemoglobin (flavoHb), an NO dioxygenase (NOD) (protein, UniProt P24232 1-396, looked up)
Flavohemoprotein: MLDAQTIATVKATIPLLVETGPKLTAHFYDRMFTHNPELKEIFNMSNQRNGDQREALFNAIAAYASNIENLPALLPAVEKIAQKHTSFQIKPEQYNIVGEHLLATLDEMFSPGQEVLDAWGKAYGVLANVFINREAEIYNENASKAGGWEGTRDFRIVAKTPRSALITSFELEPVDGGAVAEYRPGQYLGVWLKPEGFPHQEIRQYSLTRKPDGKGYRIAVKREEGGQVSNWLHNHANVGDVVKLVAPAGDFFMAVADDTPVTLISAGVGQTPMLAMLDTLAKAGHTAQVNWFHAAENGDVHAFADEVKELGQSLPRFTAHTWYRQPSEADRAKGQFDSEGLMDLSKLEGAFSDPTMQFYLCGPVGFMQFTAKQLVDLGVKQENIHYECFGPHKVL
In the case of B1, the Km (E. coli flavoHb-NOD [1]) is given as roughly 2 µM, the K1 (E. coli flavoHb-NOD [2]; 20 °C) is given as 2 (2) Micromolar and the K1 (E. coli flavoHb-NOD [2]; 37 °C) is given as 2 (2) Micromolar. For the same molecule, the “k′H, bimolecular rate constant for hydride transfer NADH to FAD” value (E. coli flavoHb [3]) was 1.5e+07 M⁻¹ s⁻¹, the “k' fast” value [4, 10] was 2.9e+07 M⁻¹ s⁻¹ and the “k' slow” value [4, 10] was 2.7e+06 M⁻¹ s⁻¹. The τT [4, 10] was 500 ± 100 µs, the “k' fast” value [4, 11] was 2.9e+07 M⁻¹ s⁻¹ and the “k' slow” value [4, 11] was 1.9e+06 M⁻¹ s⁻¹. The τT [4, 11] was 70 ± 10 µs, the “k′fast” value ([4]; Fe^2+ CO, 20 °C) was 1.4e+07 M⁻¹ s⁻¹ and the “k′slow” value ([4]; Fe^2+ CO, 20 °C) was 1.4e+06 M⁻¹ s⁻¹. For the same molecule, the τT ([4]; Fe^2+ CO, 20 °C) was 175 ± 25 μs, the Kd ([4]; Fe^2+ CO, 20 °C) was 12 to 39 nM and the “k′fast” value ([4]; Fe^2+ NO, 20 °C) was 3.1e+07 M⁻¹ s⁻¹. The “k′slow” value ([4]; Fe^2+ NO, 20 °C) was 8.5e+06 M⁻¹ s⁻¹, the τT ([4]; Fe^2+ NO, 20 °C) was 40 ± 10 μs and the Kd ([4]; Fe^2+ NO) was 0.024 nM. The “k′fast” value ([4]; Fe^2+ O2, 20 °C) was 3.3e+07 M⁻¹ s⁻¹, the “k′slow” value ([4]; Fe^2+ O2, 20 °C) was 1.4e+07 M⁻¹ s⁻¹ and the τT ([4]; Fe^2+ O2, 20 °C) was 70 ± 5 μs. For the same molecule, the k ([4]; Fe^2+ O2 dissociation, 20 °C) was 0.20 s⁻¹, the “k′fast” value ([4]; Fe^3+ NO, 20 °C) was 4.6e+07 M⁻¹ s⁻¹ and the “k′slow” value ([4]; Fe^3+ NO, 20 °C) was 1.2e+07 M⁻¹ s⁻¹. For the same molecule, the τT ([4]; Fe^3+ NO, 20 °C) was 18 ± 3 μs, the Kd ([4]; Fe^3+ NO) was 330000 nM and the “time for 90% activity recovery following NO binding” value ([4]; ferric NO form) was 0.6 ms. For the same molecule, the “time for 90% activity recovery following NO binding” value ([4]; ferrous NO species) was 1.15e+07 ms, the “decrease of fraction of flavoHbFe^3+O2^− formed in the fast phase” value [5] was roughly 50% and the “τT for O2 rebinding” value [5] was roughly 55 μs. For the same molecule, the “kET, heme reduction by FADH2 (maximum / apparent)” value (E. coli flavoHb [6]; 20 °C, absorbance at 430 nm) was 120 s⁻¹, the “maximal NADH-driven ET rate measured by stopped flow” value (E. coli flavoHb [6]; Fig. 9B) was 160 s⁻¹ and the “methyl viologen reductase activity” value [7] was 0.36 s^−1. The TMAO reductase activity (TMAO reductase activity) was 0.21 s⁻¹, the “NO elimination via reduction” value [8] was no more than 0.1 s⁻¹ and the “Vmax for Fe^2+NO reduction” value [8] was 0.1 s⁻¹. For the same molecule, the “cytochrome b5 reductase activity” value (ferric cytochrome b5) was 0.14 s⁻¹, the NO reductase activity ([9]; 37 °C, 2 μM NO, anaerobic) was 0.19 s⁻¹ and the “time for 90% reversal in the steady state” value ([9]; with NO elimination via reduction) was 23 s. It also gave an NADH oxidase activity (NADH oxidase activity) of 0.27 s⁻¹.
